Protein production data for 21 sequences are collected here from a protein production outcome set (Wang et al. 2014).
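Note: failed if final PepcDB status was selected cloned or expressed and not failed if soluble or beyond.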

A short description of this data set: label from the status in PepcDB records.
For “MSSVSLQDFDAERIGLFHEDIKRKFDELKSKNLKLDLTRGKPSSEQLDFADELLALPGKGDFKAADGTDVRNYGGLDGIVDIRQIWADLLGVPVEQVLAGDASSLNIMFDVISWSYIFGNNDSVQPWSKEETVKWICPVPGYDRHFSITERFGFEMISVPMNEDGPDMDAVEELVKNPQVKGMWVVPVFSNPTGFTVTEDVAKRLSAMETAAPDFRVVWDNAYAVHTLTDEFPEVIDIVGLGEAAGNPNRFWAFTSTSKITLAGAGVSFFLTSAENRKWYTGHAGIRGIGPNKVNQLAHARYFGDAEGVRAVMRKHAASLAPKFNKVLEILDSRLAEYGVAQWTVPAGGYFISLDVVPGTASRVAELAKEAGIALTGAGSSYPLRQDPENKNLRLAPSLPPVEELEVAMDGVATCVLLAAAEHYAN”, the protein production entry is “not failed”.

In the case of “MSSWPQERRDSLLELVRKSREIFSSMKPLLRVGDRPRAVFVGDTHGAFMVTKYVFENFSDYDAIVFLGDYVDREPYGLENLEIILSHFVENKDKVIVLRGNHESPLTNEYYGFRAEVREKLGDENYKEFVDLFSEMPYAAIVNNYLCVHGGIARNLKNVQQIEELKKPDIIPEDEIAFEMLWNDPREELDGFVPNIRGEGTFFYGKDVTLEFLKENSLKGIIRGHEVADGFRSEIDERVITVFSSRYHKMRAGILLQDGEKFNMVYLDEEFLLKGDKS”, the protein production result was “failed”.

For the sequence “MSTAGLFSIFLIGIASNLDNAGVGIAYGIRKIRISWFNNFIIAFFGFLFTLLAGFFGNWIALFISEFTANLIGAIVLGIIGVFILCQPFLGQRNTVGSKDGNVLMGILRDPEKADFDGSKTISFSEAIVLGIALSINNIAGGFDAGITNLNLWLTATISGVFSFICISGFAYVGKRFLAEYLGKWATIIAEVLLILIGIDQLL”, the protein production result is on record as “failed”.

As to “MSTDQTPTAAGSGFSYTLTRTLDAPAARVWQAWTTPDQYAQWAYAVPGSVEMDVRPGGTWKATMRTPDGTEFPLTGSYIEVAEHRALTIGMNVPGRPDPATMTVELAEEGPRNTVITLRQTCDTAEERDGAEQGSGMLLDGLTGFLAGGKQG”, the protein production entry was “failed”.

Turning to “MSTEKIINLAAYAGKILLQSGAEIYRVEETMNKICTAFNVKEAESFVTPTGIIISITGEDEKITSTIKRIQVRTVDLRKISEVNDLSRTLQYKNFSLEEVADKLKKIDNEKKHSDLFLIFFSAVAAGFFTLIFGGTFRDFSVSFFIGIIIKIFSIIISRLEINDFFLNMVGGAIAAFIALLFKKLGVVVYLDKTIIGSIMLLVPGLAITNAVRDTIAGDLVSGVSRALDAFFTAVAIAAGTGLVFKIWINFFGGTGL”, the protein production result is “failed”.

As to “MSTELIAAVEAADSAEGLVRAVAALSAARTDAAIPTLISVLAFNNPGAAVVAVDGLIQLGSPAAQAILNNLDDYNYGARAWALRALAGIGEPAALPLLLSAAREDFSLSVRRAATYGLGRVRWADLSESDRLAQQQQCYETLKLCLQYDPEWVVRYAAAAALETLAPAATQLQSAIAETLNRQAHSDEERAVQARSRLAERRLAGGVLEHHHHHH”, the protein production result is given as “not failed”.

In the case of “MSTHVTFDYSKALSFIGEHEITYLRDAVKVTHHAIHEKTGAGNDFLGWVDLPLQYDKEEFARIQKCAEKIKNDSDILLVVGIGGSYLGARAAIEMLNHSFYNTLSKEQRKTPQVLFVGQNISSTYMKDLMDVLEGKDFSINVISKSGTTTEPALAFRIFRKLLEEKYGKEEARKRIYATTDKARGALKTLADNEGYETFVIPDDVGGRFSVLTPVGLLPIAVSGLNIEEMMKGAAAGRDDFGTSELEENPAYQYAVVRNALYNKGKTIEMLINYEPALQYFAEWWKQLFGESEGKDQKGIFPSSANFSTDLHSLGQYVQEGRRDLFETVLKVGKSTHELTIESEENDLDGLNYLAGETVDFVNTKAYEGTLLAHSDGGVPNLIVNIPELNEYTFGYLVYFFEKACAMSGYLLGVNPFDQPGVEAYKKNMFALLGKPGFEELKAELEERLK”, the protein production entry is “not failed”.

For “MSTLIQDLKAQAGIFESDADQVHGLLAEFPDPGALLHAAEAVREEGYRHFDTHSPFPIHGMDEAMGLGNASAVGVLTFFGGITGCVVAYLLQWWTAAVDYPLNISGKPFFAVEPSVPIMFELTILFAAFGTVAGMFALNGLPRPYNPLFYSDRFKGATDDRFFLHIAASDDEFDVEDSAAMLQRLGAHHLELVKDDGTVDA”, the protein production result is “failed”.

Consider “MSTQFSDKFIQNLKPEAKKYYIRESRGFAIVVHPSGIKNPKGTKTFLYIYTINGKRKELKLGNYPEVTLKDARIKHGEAYARLVNGEDPVTPPVIKAEPQDENLTFGHFTELYLQWSKDNHSPKWHNTIKCALNKDALPVWEYTLIASIKRRDAIAFLENVARRGIQVINLHKATSSVFDYALEREYIESNPMAGLKAKTIPALKPKARERFLSDSEIKHVWKAIDEGPGYDETKRALKLIMVTAQRPGEVAAMHRREIQTGVGKPRCKICKRCGWWTIPAERMKNGEEHRIYLTPTALELIGDAEGYIFPSPQDGQPINRNSLSQLVSRERNNKKPNGEMYPPYYGLPEWTPHDLRRTARTLLARVGVPEEHAEEVLSHKKEGLVDRYNRHDYMEEKKEALIKLEAELMKLSI”, for which the protein production entry is given as “failed”.

On to “MSTQTSIEWTEMTWNPIVGCTKVSPGCKHCYAENMAHRLQAMGTPGYENGFKLSLRPEKLREPLQRKKPTIYFVNSMSDLFHEKVPDHYIDQVFEVIREATQHTFQILTKRAERLADYFSKRTPPTNAWLGVSVEDKAYGVPRIDCLRRVNATIRFLSAEPLLEDLGEIDLTDIHWVIVGGESGNKARPMQQEWVDNIHRQCDVSGSAFFFKQWGGWGADGVKRSKKANGRLLNGQTWDEIPLLNLALEHHHHHH”, for which the protein production result was “failed”.

“MSTQYWEEEIEIMSREKLQELQLQRLKKTINIAANSPYYKEVFSKNGITGDSIQSLDDIRKIPFTTKSDMRANYPFGLVAGDMKRDGVRIHSSSGTTGNPTVIVHSQHDLDSWANLVARCLYMVGIRKTDVFQNSSGYGMFTGGLGFQYGAERLGCLTVPAAAGNSKRQIKFISDFKTTALHAIPSYAIRLAEVFQEEGIDPRETTLKTLVIGAEPHTDEQRRKIERMLNVKAYNSFGMTEMNGPGVAFECQEQNGMHFWEDCYLVEIIDPETGEPVPEGEIGELVLTTLDREMMPLIRYRTRDLTRILPGKCPCGRTHLRIDRIKGRSDDMFIIKGVNIFPMQVEKILVQFPELGSNYLITLETVNNQDEMIVEVELSDLSTDNYIELEKIRRDIIRQLKDEILVTPKVKLVKKGSLPQSEGKAVRVKDLRDNK”: the protein production result is “not failed”.

With “MSTSDPSAERPRDNFIYDIIDEDLEHGTYDGRVVTRFPPEPNGYLHIGHAKSIVLNFGIKHDYADRADTRCHLRFDDTNPDTESTEYVESIKEAVQWLGYDWEEHEYHASDYFEQFYQYAVTLIEQGDAYVDSLSEEEIREYRGTVDEPGTPSPYRDRSVEENLELFRKMRDGEFDDGEHVLRAKIDMSSPHMIMRDPLLFRIKHAHHYRRGDEWCIYPMYDYAHPLEDAIENITHSLCTLEFDNNRRVYDWVMEHCLDENELPSRPRQYEFNRLNLGYTVMSKTKLRHLIEEDLVGGWDDPRLPTISGLRRRGVPPSAIRSFCRTVGVTRSQSRVQIGHFEHALRDDLNAKAPRVMAVLDPLKVVATNVDADAVDWIDANHWPRDIDKDETRPVPFTREFYIERDDFREDPPEDFIRLAPGREVRLRHAYFFTCEEVVRDEDGVVTELRGTIDPETRDSTAPDGRSPEGTLHWVSAAHGLPFEARLYDRLFEVPDPDARDEHFTEFLNPDSLNVRQGVLEPAVRDLEADQRVQFERQGYFWPDPEASRPDALVYNQIVPLRDTWGEDEDGLTQEELARRRRAKEQRKQEQRRRSLDGKTDPAEHLDDAQRDRFDRFHDELGIDREDAATIAGNGALAGFFEQALAHYDAPVPVANWTVNELLGRLQDQTVADLPFGPDAFAELVRLVDTEFISTRGGDAVLDALLEDGGSPERIVDDRGLRQVDDTEALRPTVQSVLDDHPDEVSRYRDGKKGLIGFFMGQVMDATDGAASPELARELLQQELDPSA”, the protein production entry was “failed”.

On to “MSTSHPISKIYFSDKKSLQKVDILLEQEGIRRDTNLDYICAMFDDDLNIIATGSCFGNTLRCLSVDHHYQGDGLLNEIVTHLINIQFERGNTHLFLYTKPDTAKFFKDLGFYEIARADKQIVFMENKKDGFSNYLKNLEKPDSECQTTAALVINANPFTLGHQYLVEKAAAENELLHLFMVSDDSSLIPFSVRKQLILAGTEHLSNICYHETGPYIISKSIFPSYFQKDQASVIESQARIDLAIFIQIAKYLGIKGRYVGEEPTSLVTGIYNQIMLQELPKQAIDCIVVPRKTYKDGPISASTVRKALKEGNEQILRELLPSTSLNYFLSPEAQPLIKKIQKADNVIHY”, for which the protein production result was “failed”.

Turning to “MSTSPYEKLSEQEKKQMIKEIQEQAYEALLYAFGVEKKMISDDVKNLLNIEQESAEEKRKMAYEATLLAATFSHSLAKDRDGVLATLKNQLHITDDFHRECQNRVRNNILVVQLTGEASGSNYVGETGWTTLRRISNTIFRF”, the protein production entry was “failed”.

Consider “MSTSQTKNVSIDTIKEFMYQVLLKVGSDEENARMVRDTLIAADLRGMDTHGIQRFKTVYIDRIKKGMINPTAKPSIIRETSTTCVLDGNNGFGHVNGTIGMKMAIEKAKKYGMGMVVVRNSTHFGIAGYYSLLAAQEGCIGICGTNARSSVAATFGDEPILGTNPLAIGIPSDEAFPYCFDGATSISPTGRFEKYVRMGKTVDKSWASMKGGKPIEDPKELLENYPKGKAYLHPLGGSDEVSGSHKGYCLSEFVEIMSSCLSIANFLNHIEEEKEKSGKFSLGHFFIAINVECFRDLNEFKKNVGDINRTLRNTDKLPGHDRIYTAGEKEYETEQKRRKFGDDLPLVTINEMKELSSFYNVPLPF”, for which the protein production entry is on record as “not failed”.

Turning to “MSTTMKRQGCSSDSGDLRRQPSRLLKRPPALKIVPATPAANNWNTAIPLLSPLALSPESSPVDQPPVEKNQSTAVAVEKTPVFKKWQHPAAPFYYESSTFVPPFVPV”, the protein production entry was “failed”.

On to “MSTTTATLRDAIPDTRSLVTWAAVLNAEFILILGYVVNTAQPATDPFLLVFPFIWLNIAGLVALRVRPELPSRRRTIGSVVIALGYLLVLGYVGGVYGTGGQGTGLRLVTQAPPGFSPTVVFSGATLSVVLIPWKVAGYLALSYLVFVTAVDASGGAVGGIVGLFSCVSCVLPILASILGGFVGVGATLSQAALSQSYGLSTVVFVTSVGLLYGVHRFDVTLVGRLQALVDRP”, for which the protein production entry is reported as “failed”.

As to “MSTYDTAVLDDTLVSCLSQLIGAEHIDTLTLEGRFEITRIAAALSGRPGPAPRAILMSGLQGSGKTTLARALEAAGFRRLCPDEEMFRRYGHYGRDFPRGEFRVREAPVLKDIALELQELLTAGHEVVVDHGFWTREERAQWAMTVMEAGGKPVLIYLPVPHEVRWDRIRKRNEQSLVDANSIEFSEEDLLRHAGRFSPPTDDEPHIVYDGQPDSVLADIQLSRHFDALEHHHHHH”, the protein production result is “failed”.

With “MSVAAEVAQVAQSAIDDFNAAYGLCLDDDRLEQWPTLFVDDCLYQVIARENVDNGLPAAVMYCDSKGMLADRVVALRKANVFPEHFNRHLIGRAVITGVEGDQVSAEASYVVFQTRNDGETRIYNAGKYVDRFDLSGGTVRLKSRTCIYDTLRIATLLATPI”, the protein production entry was “not failed”.

On to “MSVAAGGPAGAAIPESRLMALGIIGGLGGIYASTVNPVIGPVFASLGAVCAIIWGADAIRRVASYGLGTGVPSIGYMSVSIGIVGVVAGLASVFTLPALAAPVVGLILAMILGVVVAVLGKKIVKMKIPILEKCTAEISGAAALSVLGFSAAIAGSYTMQAVLTSVIATGFIGLLFILNTMAIQHPFNACLGPNENQTRTLKLAASTGFISMAIAGLLGIGLNPGWWLVSLVGALCWVVAFKSFVSASFEEAASVKWSGLWPKEEEQ”, for which the protein production result is on record as “failed”.

On to “MSVADSYFDELFRNNDDPWAFKQRWYERRKRALTLAALPRERYRAIFEPGCANGELSADLAERCDMLVCCDTSTQAVELARQRLADVPHARVVQARLPHQWPAGQFDLIVFSELGYYLDAADLHRLIDCALAALSPDGQLLACHWRPDIEGCPLNAQAVHAILAERLSMHRLFSHHEQDFLLDLWSRDGLEHHHHHH”, for which the protein production entry is listed as “failed”.
